First the molecules themselves.
T1: LNX2_1, Q8N448
T1 sequence (Q8N448 228-328, limits assumed, looked up): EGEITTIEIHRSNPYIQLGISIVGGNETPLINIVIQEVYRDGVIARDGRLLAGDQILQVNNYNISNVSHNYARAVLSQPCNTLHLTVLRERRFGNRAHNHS

In the first assay the target is Q9ULJ8. In words: holdup assay. Further details: key: below the threshold = too weak to quantify, mostly under pKd 3.1 to 4. The conditions noted are these: plain residues with an end cap or a label only (N-terminal biotin on a linker: ttds).
For PPRQRSETQV [HPV82-E6, Q9IR59], the negative logarithm of the Kd (pKd) (usually −log10 of the Kd, conventionally taken in molar units) was “below the threshold”.

As for KLVIKTETTV [RASSF6, Q6ZTQ3], the pKd result is listed as “below the threshold”.

A further assay addresses Q9UMS6. In words: holdup assay. Further details: key: below the threshold = too weak to quantify, mostly under pKd 3.1 to 4. The conditions noted are these: plain residues with an end cap or a label only (N-terminal biotin on a linker: ttds).
For PPRQRSETQV [HPV82-E6, Q9IR59], the pKd entry was “below the threshold”.

In the case of KLVIKTETTV [RASSF6, Q6ZTQ3], the negative logarithm of the Kd (pKd) result is “below the threshold”.

Another assay has as its target Q9P227. In words: holdup assay. Further details: key: below the threshold = too weak to quantify, mostly under pKd 3.1 to 4. The conditions noted are these: plain residues with an end cap or a label only (N-terminal biotin on a linker: ttds).
With PPRQRSETQV [HPV82-E6, Q9IR59], the negative-log Kd (pKd) result is “below the threshold”.

In the next assay the target is LIMK1, P53667. In words: holdup assay. Further details: key: below the threshold = too weak to quantify, mostly under pKd 3.1 to 4. The conditions noted are these: plain residues with an end cap or a label only (N-terminal biotin on a linker: ttds).
Chain of LIMK1, P53667 (P53667 155-268): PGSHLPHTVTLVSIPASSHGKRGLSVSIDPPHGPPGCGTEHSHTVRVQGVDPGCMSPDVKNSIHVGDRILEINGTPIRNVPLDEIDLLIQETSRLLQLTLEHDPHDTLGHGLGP
For the molecule SRSRRRETAL [HPV33-E6, P06427], the negative logarithm of the Kd (pKd) result is listed as “below the threshold”.

On to KLVIKTETTV [RASSF6, Q6ZTQ3], for which the negative logarithm of the Kd (pKd) was 4.37.

Another assay has as its target Q96HC4. The assay is described as follows: holdup assay. The conditions noted are these: plain residues with an end cap or a label only (N-terminal biotin on a linker: ttds). Further details: key: below the threshold = too weak to quantify, mostly under pKd 3.1 to 4.
As for PPRQRSETQV [HPV82-E6, Q9IR59], the negative-log Kd (pKd) entry is recorded as “below the threshold”.

Regarding KLVIKTETTV [RASSF6, Q6ZTQ3], the pKd result was “below the threshold”.

For another assay, the target named is Q12923. The assay is described as follows: holdup assay. Set-up: key: below the threshold = too weak to quantify, mostly under pKd 3.1 to 4. The conditions noted are these: plain residues with an end cap or a label only (N-terminal biotin on a linker: ttds).
Regarding PPRQRSETQV [HPV82-E6, Q9IR59], the negative-log Kd (pKd) result was “below the threshold”.

KLVIKTETTV [RASSF6, Q6ZTQ3]: the pKd result is “below the threshold”.

A further assay has as its target Q96JY6. In words: holdup assay. Set-up: key: below the threshold = too weak to quantify, mostly under pKd 3.1 to 4. The conditions noted are these: plain residues with an end cap or a label only (N-terminal biotin on a linker: ttds).
For the molecule PPRQRSETQV [HPV82-E6, Q9IR59], the pKd entry was “below the threshold”.

For the molecule KLVIKTETTV [RASSF6, Q6ZTQ3], the pKd entry is recorded as “below the threshold”.

The next assay deals with O43166. The assay is described as follows: holdup assay. Further details: key: below the threshold = too weak to quantify, mostly under pKd 3.1 to 4. The conditions noted are these: plain residues with an end cap or a label only (N-terminal biotin on a linker: ttds).
As to PPRQRSETQV [HPV82-E6, Q9IR59], the pKd entry is reported as “below the threshold”.

As for KLVIKTETTV [RASSF6, Q6ZTQ3], the negative-log Kd (pKd) result is listed as “below the threshold”.

The next assay has as its target Q8TEW0. The assay is described as follows: holdup assay. Further details: key: below the threshold = too weak to quantify, mostly under pKd 3.1 to 4. The conditions noted are these: plain residues with an end cap or a label only (N-terminal biotin on a linker: ttds).
On to PPRQRSETQV [HPV82-E6, Q9IR59], for which the pKd entry is “below the threshold”.

With KLVIKTETTV [RASSF6, Q6ZTQ3], the pKd entry is recorded as “below the threshold”.

For the next assay, the target named is PTPN13_2, Q12923. In words: holdup assay. Further details: key: below the threshold = too weak to quantify, mostly under pKd 3.1 to 4. The conditions noted are these: plain residues with an end cap or a label only (N-terminal biotin on a linker: ttds).
Chain of PTPN13_2, Q12923 (Q12923 1363-1462): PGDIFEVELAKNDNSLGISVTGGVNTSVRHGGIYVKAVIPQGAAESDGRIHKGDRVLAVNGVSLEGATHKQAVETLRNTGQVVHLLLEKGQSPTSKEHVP
Regarding PPRQRSETQV [HPV82-E6, Q9IR59], the pKd result is “below the threshold”.

Regarding KLVIKTETTV [RASSF6, Q6ZTQ3], the pKd entry is on record as “below the threshold”.

Regarding SGGKRKETLV [NET1, Q7Z628], the negative logarithm of the Kd (pKd) result is on record as “below the threshold”.

Another assay has as its target Q8TB45. In words: holdup assay. The conditions noted are these: plain residues with an end cap or a label only (N-terminal biotin on a linker: ttds). Further details: key: below the threshold = too weak to quantify, mostly under pKd 3.1 to 4.
As for PPRQRSETQV [HPV82-E6, Q9IR59], the negative logarithm of the Kd (pKd) entry is on record as “below the threshold”.

In the case of KLVIKTETTV [RASSF6, Q6ZTQ3], the pKd entry is given as “below the threshold”.

The target in another assay is Q92614. The assay is described as follows: holdup assay. The conditions noted are these: plain residues with an end cap or a label only (N-terminal biotin on a linker: ttds). Set-up: key: below the threshold = too weak to quantify, mostly under pKd 3.1 to 4.
On to PPRQRSETQV [HPV82-E6, Q9IR59], for which the pKd result is listed as “below the threshold”.

As to KLVIKTETTV [RASSF6, Q6ZTQ3], the negative-log Kd (pKd) result is recorded as “below the threshold”.

A further assay deals with O15021. The assay is described as follows: holdup assay. Further details: key: below the threshold = too weak to quantify, mostly under pKd 3.1 to 4. The conditions noted are these: plain residues with an end cap or a label only (N-terminal biotin on a linker: ttds).
With PPRQRSETQV [HPV82-E6, Q9IR59], the pKd entry is reported as “below the threshold”.

In the case of KLVIKTETTV [RASSF6, Q6ZTQ3], the pKd entry is reported as “below the threshold”.

For another assay, the target named is Q8TDM6. In words: holdup assay. Set-up: key: below the threshold = too weak to quantify, mostly under pKd 3.1 to 4. The conditions noted are these: plain residues with an end cap or a label only (N-terminal biotin on a linker: ttds).
Consider PPRQRSETQV [HPV82-E6, Q9IR59], for which the negative-log Kd (pKd) entry is on record as “below the threshold”.

KLVIKTETTV [RASSF6, Q6ZTQ3]: the negative logarithm of the Kd (pKd) entry was “below the threshold”.

A further assay addresses Q6ZWJ1. In words: holdup assay. Set-up: key: below the threshold = too weak to quantify, mostly under pKd 3.1 to 4. The conditions noted are these: plain residues with an end cap or a label only (N-terminal biotin on a linker: ttds).
In the case of PPRQRSETQV [HPV82-E6, Q9IR59], the pKd entry is “below the threshold”.

Consider KLVIKTETTV [RASSF6, Q6ZTQ3], for which the negative logarithm of the Kd (pKd) result is reported as “below the threshold”.

For the next assay, the target named is Q9UDY2. In words: holdup assay. Set-up: key: below the threshold = too weak to quantify, mostly under pKd 3.1 to 4. The conditions noted are these: plain residues with an end cap or a label only (N-terminal biotin on a linker: ttds).
As to PPRQRSETQV [HPV82-E6, Q9IR59], the pKd entry is listed as “below the threshold”.

On to KLVIKTETTV [RASSF6, Q6ZTQ3], for which the pKd result is on record as “below the threshold”.

The next assay deals with Q9H190. In words: holdup assay. Further details: key: below the threshold = too weak to quantify, mostly under pKd 3.1 to 4. The conditions noted are these: plain residues with an end cap or a label only (N-terminal biotin on a linker: ttds).
In the case of PPRQRSETQV [HPV82-E6, Q9IR59], the negative-log Kd (pKd) result is reported as “below the threshold”.

Take KLVIKTETTV [RASSF6, Q6ZTQ3]: the negative-log Kd (pKd) result was “below the threshold”.

The next assay deals with T1, LNX2_1, Q8N448. In words: holdup assay. Set-up: key: below the threshold = too weak to quantify, mostly under pKd 3.1 to 4. The conditions noted are these: plain residues with an end cap or a label only (N-terminal biotin on a linker: ttds).
On to SGGKRKETLV [NET1, Q7Z628], for which the negative-log Kd (pKd) entry is reported as “below the threshold”.

A further assay deals with Q13368. The assay is described as follows: holdup assay. Set-up: key: below the threshold = too weak to quantify, mostly under pKd 3.1 to 4. The conditions noted are these: plain residues with an end cap or a label only (N-terminal biotin on a linker: ttds).
On to PPRQRSETQV [HPV82-E6, Q9IR59], for which the negative logarithm of the Kd (pKd) entry is “below the threshold”.

As for KLVIKTETTV [RASSF6, Q6ZTQ3], the pKd entry is reported as “below the threshold”.

A further assay has as its target Q96JB8. The assay is described as follows: holdup assay. Further details: key: below the threshold = too weak to quantify, mostly under pKd 3.1 to 4. The conditions noted are these: plain residues with an end cap or a label only (N-terminal biotin on a linker: ttds).
For the molecule PPRQRSETQV [HPV82-E6, Q9IR59], the pKd result was “below the threshold”.

Turning to KLVIKTETTV [RASSF6, Q6ZTQ3], the negative-log Kd (pKd) result is on record as “below the threshold”.

The target in a further assay is Q96FS4. The assay is described as follows: holdup assay. Set-up: key: below the threshold = too weak to quantify, mostly under pKd 3.1 to 4. The conditions noted are these: plain residues with an end cap or a label only (N-terminal biotin on a linker: ttds).
Take PPRQRSETQV [HPV82-E6, Q9IR59]: the pKd result was “below the threshold”.

In the case of KLVIKTETTV [RASSF6, Q6ZTQ3], the negative-log Kd (pKd) entry was “below the threshold”.

The target of another assay is O00560. The assay is described as follows: holdup assay. Further details: key: below the threshold = too weak to quantify, mostly under pKd 3.1 to 4. The conditions noted are these: plain residues with an end cap or a label only (N-terminal biotin on a linker: ttds).
PPRQRSETQV [HPV82-E6, Q9IR59]: the pKd result is on record as “below the threshold”.

KLVIKTETTV [RASSF6, Q6ZTQ3]: the pKd result is reported as “below the threshold”.

A further assay concerns the target O75970. The assay is described as follows: holdup assay. Set-up: key: below the threshold = too weak to quantify, mostly under pKd 3.1 to 4. The conditions noted are these: plain residues with an end cap or a label only (N-terminal biotin on a linker: ttds).
Consider PPRQRSETQV [HPV82-E6, Q9IR59], for which the pKd result was “below the threshold”.

Turning to KLVIKTETTV [RASSF6, Q6ZTQ3], the pKd result is on record as “below the threshold”.

A further assay addresses Q9NR12. In words: holdup assay. Set-up: key: below the threshold = too weak to quantify, mostly under pKd 3.1 to 4. The conditions noted are these: plain residues with an end cap or a label only (N-terminal biotin on a linker: ttds).
As to PPRQRSETQV [HPV82-E6, Q9IR59], the pKd result is on record as “below the threshold”.

KLVIKTETTV [RASSF6, Q6ZTQ3]: the pKd result is on record as “below the threshold”.
